The supplement of paper PMC9112550, “Optimization of the antimicrobial peptide Bac7 by deep mutational scanning” (BMC Biology, 2022)

system: Escherichia coli TOP10; experiment: shrunken log2 fold change of peptide-encoding DNA abundance (4.5 h post-induction vs induction); higher = less antimicrobial activity (less host growth inhibition); details: time post-induction: 4.5 h; library: site-saturation at positions 5, 18, 19, 20
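Note: peptides expressed intracellularly from a pBAD plasmid library in pooled LB shake-flask culture, induced with 0.3% L-arabinose, DNA abundance read by NGS, three biological replicates, DESeq2 with apeglm shrinkage.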

Sequence | shrunken log2 fold change
RRIRNRPPRLPRPRPRPKGRPRP | 0.0238
RRIRGRPPRLPRPRPRPKNMPRP | 0.176
RRIRYRPPRLPRPRPRPKREPRP | 0.0201
RRIRLRPPRLPRPRPRPHSPPRP | -0.252
RRIRFRPPRLPRPRPRPRYAPRP | 0.148
RRIRGRPPRLPRPRPRPRVLPRP | 0.367
RRIRRRPPRLPRPRPRPGWGPRP | 0.497
RRIRVRPPRLPRPRPRPNPTPRP | -0.325
RRIRMRPPRLPRPRPRPFRVPRP | 0.22
RRIRIRPPRLPRPRPRPFRTPRP | -0.241
RRIRSRPPRLPRPRPRPHPIPRP | -0.214
RRIRPRPPRLPRPRPRPNICPRP | -0.799
RRIRIRPPRLPRPRPRPQNNPRP | -0.957
RRIRQRPPRLPRPRPRPYAVPRP | -0.00389
RRIRMRPPRLPRPRPRPVQAPRP | 1.26
RRIRRRPPRLPRPRPRPKRQPRP | 0.584
RRIRYRPPRLPRPRPRPHNVPRP | -0.14
RRIRERPPRLPRPRPRPPWLPRP | 0.488
RRIRPRPPRLPRPRPRPLQYPRP | -0.478
RRIRIRPPRLPRPRPRPFTCPRP | 0.0493
RRIRYRPPRLPRPRPRPWLKPRP | -0.0198
RRIRVRPPRLPRPRPRPTMNPRP | -0.353

Sequence | shrunken log2 fold change
RRIRVRPPRLPRPRPRPKTCPRP | 0.021
RRIRMRPPRLPRPRPRPPSWPRP | 0.245
RRIRHRPPRLPRPRPRPQHDPRP | -0.281
RRIRQRPPRLPRPRPRPSVKPRP | -0.0362
RRIRPRPPRLPRPRPRPNYTPRP | -0.679
RRIRLRPPRLPRPRPRPGAIPRP | 0.0769
RRIRHRPPRLPRPRPRPHGPPRP | 0.0873
RRIRPRPPRLPRPRPRPGHYPRP | -0.0973
RRIRLRPPRLPRPRPRPKYTPRP | -0.61
RRIRLRPPRLPRPRPRPWWIPRP | -0.107
RRIRERPPRLPRPRPRPGWLPRP | 0.256
RRIRCRPPRLPRPRPRPFQWPRP | -0.0999
RRIRYRPPRLPRPRPRPTSAPRP | 0.0113
RRIRQRPPRLPRPRPRPKIGPRP | -0.0543
RRIRRRPPRLPRPRPRPGVCPRP | 0.369
RRIRKRPPRLPRPRPRPVVMPRP | 3.16
RRIRGRPPRLPRPRPRPPDWPRP | 1.24
RRIRNRPPRLPRPRPRPTYTPRP | -0.303
RRIRARPPRLPRPRPRPTYWPRP | 0.144
RRIRFRPPRLPRPRPRPPTLPRP | -0.0735
RRIRSRPPRLPRPRPRPEFRPRP | 0.15
RRIRDRPPRLPRPRPRPNWFPRP | -0.0729

Sequence | shrunken log2 fold change
RRIRRRPPRLPRPRPRPLDSPRP | -0.106
RRIRRRPPRLPRPRPRPYFQPRP | -0.189
RRIRARPPRLPRPRPRPVCYPRP | -0.128
RRIRKRPPRLPRPRPRPCFLPRP | -0.0702
RRIRPRPPRLPRPRPRPDNAPRP | 0.0303
RRIRHRPPRLPRPRPRPPNKPRP | -0.171
RRIRIRPPRLPRPRPRPNWSPRP | 0.0776
RRIRQRPPRLPRPRPRPADEPRP | -0.101
RRIRWRPPRLPRPRPRPPYQPRP | -0.172
RRIRSRPPRLPRPRPRPYRDPRP | -0.128
RRIRARPPRLPRPRPRPFLWPRP | -0.0716
RRIRTRPPRLPRPRPRPIVCPRP | -0.246
RRIRRRPPRLPRPRPRPAIVPRP | 0.275
RRIRQRPPRLPRPRPRPTSKPRP | -0.189
RRIRERPPRLPRPRPRPYWDPRP | -0.111
RRIRHRPPRLPRPRPRPEIHPRP | 0.0389
RRIRSRPPRLPRPRPRPLNEPRP | -0.177
RRIRCRPPRLPRPRPRPRKWPRP | -0.0179
RRIRGRPPRLPRPRPRPSCCPRP | 0.722
RRIRPRPPRLPRPRPRPWVIPRP | 0.0892
RRIRRRPPRLPRPRPRPHKMPRP | -0.167
RRIRFRPPRLPRPRPRPGDGPRP | 0.264

Sequence | shrunken log2 fold change
RRIRNRPPRLPRPRPRPSHWPRP | -0.17
RRIRWRPPRLPRPRPRPKTVPRP | 0.227
RRIRERPPRLPRPRPRPKQGPRP | -0.0514
RRIRSRPPRLPRPRPRPAMDPRP | 0.0404
RRIRQRPPRLPRPRPRPSGLPRP | -0.0802
RRIRYRPPRLPRPRPRPMRVPRP | 0.135
RRIRPRPPRLPRPRPRPHNMPRP | -0.745
RRIRSRPPRLPRPRPRPFPDPRP | -0.319
RRIRVRPPRLPRPRPRPTADPRP | 0.27
RRIRSRPPRLPRPRPRPSDGPRP | -0.124
RRIRMRPPRLPRPRPRPQQKPRP | 0.0182
RRIRARPPRLPRPRPRPYKEPRP | -0.423
RRIRDRPPRLPRPRPRPPYAPRP | 0.0432
RRIRTRPPRLPRPRPRPKMCPRP | 0.15
RRIRARPPRLPRPRPRPGCLPRP | 0.419
RRIRRRPPRLPRPRPRPIKCPRP | -0.17
RRIRERPPRLPRPRPRPVGFPRP | 0.0681
RRIRRRPPRLPRPRPRPCWCPRP | -0.138
RRIRERPPRLPRPRPRPHVNPRP | -1.04
RRIRNRPPRLPRPRPRPPTLPRP | -0.204
RRIRNRPPRLPRPRPRPRAAPRP | 0.601
RRIRDRPPRLPRPRPRPQIDPRP | -0.0493

Sequence | shrunken log2 fold change
RRIRTRPPRLPRPRPRPDMDPRP | 0.00854
RRIRPRPPRLPRPRPRPYFMPRP | -0.555
RRIRLRPPRLPRPRPRPHMCPRP | -0.165
RRIRQRPPRLPRPRPRPPVQPRP | 0.301
RRIRRRPPRLPRPRPRPGTVPRP | 0.0962
RRIRGRPPRLPRPRPRPYSDPRP | -0.11
RRIRHRPPRLPRPRPRPVYRPRP | -0.305
RRIRVRPPRLPRPRPRPGLGPRP | 0.134
RRIRERPPRLPRPRPRPQFFPRP | -0.0736
RRIRFRPPRLPRPRPRPIQYPRP | -0.451
RRIRFRPPRLPRPRPRPMTHPRP | -0.401
RRIRDRPPRLPRPRPRPIKNPRP | -0.158
RRIRARPPRLPRPRPRPVCFPRP | 0.489
RRIRDRPPRLPRPRPRPLVMPRP | 0.0567
RRIRRRPPRLPRPRPRPGFRPRP | 0.331
RRIRKRPPRLPRPRPRPIMRPRP | -0.00968
RRIRRRPPRLPRPRPRPREFPRP | 0.419
RRIRSRPPRLPRPRPRPLGLPRP | 0.204
RRIRVRPPRLPRPRPRPVVQPRP | -0.039
RRIRMRPPRLPRPRPRPHPDPRP | -0.0902
RRIRKRPPRLPRPRPRPKLSPRP | -0.0159
